# Experimental data from paper PMC6319348, “Phase I/II clinical trial of the targeted chemotherapeutic drug, folate-tubulysin, in dogs with naturally-occurring invasive urothelial carcinoma” (Oncotarget, 2018).
# “And” between values parts separate entries of the source, which are not always exact repeats. Identical values can stand only once. “Also recorded” adds a separate entry of the source. Like-named read-outs stand apart in the source and are kept apart here. Marks after values point to notes of the source that are not given here.
# Experiments:
# [1] = system: U.S. National Cancer Institute 60 tumor cell lines; design: method as in PMID 16489930; conditions: percent of cell lines tested; cited from earlier work
# [2] = Plasma pharmacokinetic analysis; format: in vivo, dog
# Experimental: Plasma pharmacokinetic analysis was conducted in six dogs sequentially enrolled in the trial. Blood was collected at 0, 2, 10, and 30 minutes, and at 1, 2, 8, and 24 hours after treatment.
# (§1) Tubes were centrifuged, and plasma collected and stored at –80° C.
# For the analysis of EC0531 concentrations in plasma, the EC0531 was extracted from 100 µL of dog plasma by 96-well solid phase extraction (SPE). Internal standard was added to all samples prior to extraction using a Strata X-A SPE plate (Phenomenex, Torrance, CA, USA). The eluate was collected, evaporated, and finally reconstituted with 85/15 water/acetonitrile with 40 mM mannitol. The extracted samples were injected into a UPLC/MS/MS system (Waters, Milford, MA, USA) using a BEH C18 reverse phase column (Waters) implementing a mobile phase gradient. Incurred sample concentrations were then back-calculated against a calibration curve prepared in blank dog plasma.
# (§2) Internal standard was added to all samples prior to extraction using a 200 µL SLE+ plate (Biotage, Charlotte, NC, USA). The eluate was collected, evaporated, and reconstituted with acetone prior to sealing and heating the collection plate for 1 hour. After incubation, the extracts were again evaporated and finally reconstituted prior to injection. The extracted samples were injected into a UPLC/MS/MS system (Waters) using a BEH shield RP18 reverse phase column (Waters) and eluted under isocratic conditions. […] Incurred sample concentrations were then back-calculated against a calibration curve prepared in blank dog plasma. […] Samples were homogenized in buffer with a bead beater, or hand held homogenizer. Aliquots (100 µL) of each sample were spiked with 400 µL internal standards in acetone. The extracts were sealed and incubated at 55° C for 1 hour. The extracts were then evaporated to remove acetone, and reconstituted. Finally, reconstituted samples were analyzed by injection into a UPLC-MS/MS system (Waters) to evaluate concentrations of EC0531 and metabolites against a prepared calibration curve.
# [3] = Drug concentration in iUC tissue samples; format: in vivo, dog; conditions: three dogs, approximately three hours after treatment, 0.28 mg/kg EC0531
# Experimental: as §1, §2
# [4] = Phase I dose escalation: safety, tolerability, MTD (VCOG-CTCAE); format: in vivo, dog; conditions: dog, in vivo; intravenous, every two weeks; dogs with iUC; read-out: maximum tolerated dose (MTD)
# Experimental: (§3) […] […] The 10 pet dogs in the pilot study included six neutered male dogs and four spayed female dogs of a variety of breeds and weighing between 5 and 46 kg.
# (§4) Dogs in dosage cohorts were enrolled using a 3+3 trial design. Inter-patient and intra-patient dose escalation was permitted. Drug tolerability was assessed by owner questionnaire, physical exam, CBC the day of treatment and seven days following treatment, and biochemistry panel at four-week intervals. Toxicity was graded using VCOG-CTCAE criteria. The EC0531 dose was increased by 0.02 mg/kg in each subsequent dose cohort if no dose limiting toxicity (DLT) was recorded. DLT was defined as an adverse event (AE) > grade 2. When a grade 3 AE occurred, the cohort was expanded to at least six dogs including six new dogs, i.e. six dogs that had not received prior EC0531 at lower doses. If more than one grade 3 AE or any grade 4 or 5 AE occurred, then six dogs were enrolled at the previous cohort. The MTD was defined as the highest dose tolerated by six dogs with no more than one grade 3 AE and no grade 4–5 AE. Intra-patient dose escalation was permitted if no AEs had occurred after two doses of the drug had been administered.
# (§5) In individual dogs, the EC0531 dose was reduced by 10% if grade 2 toxicity was noted, and by 20% if grade 3 or higher toxicity was noted. Treatment was delayed by one week if the neutrophil count was <3,000/mm^3 or platelet count <100,000/mm^3 the day treatment was due.
# [5] = system: dogs with naturally-occurring invasive urothelial carcinoma (iUC); test: as above; format: in vivo, dog
# Experimental: as §3, §4, §5
# [6] = system: naturally-occurring invasive urothelial carcinoma (iUC); test: Phase I/II antitumor activity (tumor response, progression free interval); format: in vivo, dog
# Experimental: In order to estimate antitumor activity, the cohort of dogs receiving the MTD was expanded with the goal to assess antitumor effects in a minimum of 24 dogs treated at or above the MTD [37]. The effects of EC0531 on the tumor were assessed by cystosonography using a specific standardized protocol and physical exam including rectal exam at four-week intervals. Complete cancer staging (thoracic radiography with left lateral, right lateral, and ventrodorsal projections; abdominal radiography with right lateral and ventrodorsal projections; and complete abdominal ultrasonography) was performed at eight-week intervals. The response in the primary tumor was determined by comparing volume measurements by cystosonography as follows: complete remission (CR, no cancer detected), partial remission (PR, ≥50% decrease in tumor volume and no new tumor lesions), stable disease (SD, <50% change in tumor volume and no new tumor lesions), and progressive disease (PD, ≥50% increase in tumor volume or the development of new tumor lesions). Metastatic lesion response was assessed by RECIST criteria. Progression free interval (PFI) was defined as the time from start of EC0531 treatment until PD of local or metastatic lesion(s). Permission to perform a necropsy was requested at the time of the dog’s death (death from cancer or other causes). Tissues collected at necropsy were examined histologically and immunohistochemically to detect FR expression in primary and metastatic lesions.
# Stepwise Cox regression analysis was performed to assess the relationship between predictor variables and […] (PFI). The following variables were assessed: age, weight, sex, peripheral blood neutrophil-to-lymphocyte ratio at the start of treatment, tumor location (bladder vs urethra/prostate vs both), treatment beginning at < MTD or ≥ MTD, pretreatment with chemotherapy, concurrent use of COXi, IHC/ICC score, and best tumor response (PD vs SD vs PR/CR). Variables with p-values < 0.25 in univariate models were then included in multivariate modeling. Variable(s) with a p-value < 0.05 in the final multi-variable Cox regression model were considered to have a significant effect on PFI.
# canine iUC = conditions: randomized trial in dogs with iUC; cited from earlier work
# [7] = system: tumor xenograft mouse model; conditions: free drug; before effective anti-tumor activity could be observed; cited from earlier work
# [8] = Avg of six dogs, EC0347 in plasma after single EC0531 0.28 mg/kg IV
# [9] = dog, plasma, iv, 0.28 mg/kg, Avg of six dogs, EC0531 in plasma, single 0.28 mg/kg IV
# [10] = dogs that had received and failed prior chemotherapy
# [11] = non-responders, dogs with PD after the initial two treatments
smiles,measurement,setting,value
CC[C@H](C)[C@H](NC(=O)[C@H]1CCCCN1C)C(=O)N(COC(=O)CC(C)C)[C@H](C[C@@H](OC(C)=O)c1nc(C(=O)N[C@@H](Cc2ccc(O)cc2)C[C@H](C)C(=O)O)cs1)C(C)C [tubulysin A],cell lines with growth inhibition,[1],33%
CCCC(=O)OCN(C(=O)[C@@H](NC(=O)[C@H]1CCCCN1C)C(C)CC)[C@H](C[C@@H](OC(C)=O)c1nc(C(=O)N[C@@H](Cc2ccc(O)cc2)C[C@H](C)C(=O)NN)cs1)C(C)C (stereo partly shown) [EC0347],"Cmax, EC0347 (free drug)",[2]; [8],2.3 ng/mL
same,"Tmax, EC0347 (free drug)",[2]; [8],12.0 min
same,"Tmax, EC0347 (free drug)","[2]; individual dogs #1-6 (c0), EC0347 in plasma after single EC0531 0.28 mg/kg IV",10.0 min
CCCC(=O)OCN(C(=O)[C@@H](NC(=O)[C@H]1CCCCN1C)[C@@H](C)CC)[C@H](C[C@@H](OC(C)=O)c1nc(C(=O)N[C@@H](Cc2ccc(O)cc2)C[C@H](C)C(=O)NNC(=O)OCCSSC[C@H](NC(=O)[C@H](CCC(=O)NC[C@H](O)[C@@H](O)[C@H](O)[C@H](O)CO)NC(=O)CC[C@H](NC(=O)[C@H](CCC(=O)NC[C@H](O)[C@@H](O)[C@H](O)[C@H](O)CO)NC(=O)CC[C@H](NC(=O)[C@H](CCC(=O)NC[C@H](O)[C@@H](O)[C@H](O)[C@H](O)CO)NC(=O)CC[C@H](NC(=O)c2ccc(NCc3cnc4nc(N)[nH]c(=O)c4n3)cc2)C(=O)O)C(=O)O)C(=O)O)C(=O)O)cs1)C(C)C [EC0531],level at 3 h,"[3]; dog, iUC tumor tissue, iv, read-out: concentration of EC0531 in iUC tissues",3.9 ng/mL
same,concentration of EC0531 in iUC tissues,[3],below the level of detection
same,Tmax,"[2]; Norwegian Elkhound, dog, individual dogs #1-6 (c0), EC0531 in plasma, single 0.28 mg/kg IV",2 min
same,AUC(0-inf),[2]; [9],1900 ng·h/mL
same,AUC(0-t),[2]; [9],1890 ng·h/mL
same,C0,[2]; [9],3990 ng/mL
same,Cmax,[2]; [9],3490 ng/mL
same,clearance,[2]; [9],2.78 mL/min/kg
same,Vd,"[2]; dog, plasma, iv, 0.28 mg/kg, Avg of six dogs, EC0531 in plasma, single 0.28 mg/kg IV, read-out: Vz",0.102 L/kg
same,half-life,"[2]; dog, plasma, iv, 0.28 mg/kg, Avg of six dogs, EC0531 in plasma, single 0.28 mg/kg IV, read-out: t1/2",24.7 min
same,half-life,"[2]; dog, plasma, iv, 0.28 mg/kg, dogs, 0.28 mg/kg IV, biphasic pharmacokinetic behavior, read-out: elimination half-life",~25 min
same,half-life,"[2]; dog, plasma, iv, 0.28 mg/kg, individual dogs #1-6 (c0), EC0531 in plasma, single 0.28 mg/kg IV, read-out: t1/2",22 min
same,Tmax,"[2]; dog, Avg of six dogs, EC0531 in plasma, single 0.28 mg/kg IV",2 min
same,peak plasma drug concentration relative to concentrations required to kill FR-expressing tumor cells in vitro,"[2]; dogs receiving 0.28 mg/kg, in vitro concentrations from ref 14",approximately 700 times
same,MTD,[4],0.26 mg/kg
same,tolerability of treatment at the MTD,[5]; 0.26 mg/kg every two weeks,well tolerated
same,withdrawal from the study due to AE / toxicity,[5]; 28 dogs,No dog withdrew; also recorded: no dogs were removed
same,toxicity noted,"[5]; 28 dogs, 311 doses","neutropenia, anorexia, or lethargy"
same,overall tolerability,"[5]; 28 dogs, total of 311 doses",generally well tolerated
same,infusion reaction,"[5]; a single dog, transient","hypotension, compensatory tachycardia, and subsequent syncopal episode"
same,Adverse events defined by VCOG-CTCAE,"[5]; dose 0.28 mg/kg, 10 dogs, 63 doses",1 dog with G1 vomiting^a 1 dog with G1lethargy and G3 weight loss (DLT)^a 1 dog with G4 neutropenia (DLT)^b 1 dog with G4 infusion reaction (DLT)^b
same,Adverse events defined by VCOG-CTCAE,"[5]; dose 0.34 mg/kg, 1 dog, 5 doses",G3 anorexia and 1 dog with G3 anorexia (DLT)
same,Adverse events defined by VCOG-CTCAE,"[5]; dose 0.18 (mg/kg), 1 dog, 6 doses",1 dog with G1 anorexia
same,Adverse events defined by VCOG-CTCAE,"[5]; dose 0.20 (mg/kg), 4 dogs, 14 doses",1 dog with G2 anorexia
same,Adverse events defined by VCOG-CTCAE,"[5]; dose 0.22 (mg/kg), 4 dogs, 10 doses",1 dog with G1 lethargy
same,Adverse events defined by VCOG-CTCAE,"[5]; dose 0.24 (mg/kg), 4 dogs, 16 doses",1 dog with G2 neutropenia
same,Adverse events defined by VCOG-CTCAE,"[5]; dose 0.26 (mg/kg), 6 dogs, 33 doses",1 dog with G1 lethargy 1 dog with G1 vomiting and G1 neutropenia 1 dog with G2 neutropenia 1 dog with G3 neutropenia (DLT) and G2 diarrhea
same,Adverse events defined by VCOG-CTCAE,"[5]; dose 0.30 (mg/kg), 2 dogs, 15 doses",1 dog with G3 neutropenia (DLT)
same,Adverse events defined by VCOG-CTCAE,"[5]; dose 0.32 (mg/kg), 1 dog, 2 doses",No adverse events observed
same,toxicity observed at doses higher than the MTD,[5]; doses above 0.26 mg/kg every two weeks,grade 3-4 neutropenia and gastrointestinal toxicity
same,thrombocytopenia,"[5]; one dog, heavily pretreated with chemotherapy, chronically low platelet counts",grade 2 thrombocytopenia
same,outcome of weekly dose interval,[5]; pilot study in pet dogs,suspended due to neutropenia
same,neutrophil nadir,"[5]; pilot study in pet dogs with iUC, n = 10 dogs",four to seven days after treatment
same,outcome of twice weekly dosing,"[5]; pilot study in pet dogs, dosing not continued",dose limiting-neutropenia and anorexia
same,"PR, percent of dogs",[6]; 28 dogs,11%
same,clinical benefit rate,[6]; 28 dogs,71%
same,PFI range,[6]; all dogs (n = 28),24 to 649 days
same,median PFI,[6]; all dogs (n = 28),103 days
same,hazard ratio for PFI,[6]; dogs achieving PR vs dogs with PD,0.003 (95% CI 0–0.066)
same,HR for earlier PD,[6]; [10],4.6 (95% CI 1.2–16.7)
same,PFI range,[6]; [10],34–162
same,median PFI,[6]; [10],95 days
same,PFI range,[6]; dogs with SD,56 to 296 days
same,median PFI,[6]; dogs with SD,200 days
same,hazard ratio for PFI,[6]; dogs with SD vs dogs with PD,0.013 (95% CI 0.001–0.124)
same,PFI range,[6]; [11],24–47
same,median PFI,[6]; [11],34 days
same,"clinical benefit (PR + SD), number of dogs",[6]; of 28 dogs,20 dogs
same,"partial remission (PR), number of dogs",[6]; of 28 dogs,three
same,"stable disease (SD), number of dogs",[6]; of 28 dogs,17 dogs
same,PFI or time of censoring,[6]; the three individual dogs achieving PR,162 days and 251 days and 649 days
same,tumor response,[6]; the two dogs receiving all of their doses below the MTD,SD and PD
CC[C@]1(O)C[C@@H]2CN(CCc3c([nH]c4ccccc34)[C@@](C(=O)OC)(c3cc4c(cc3OC)N(C)[C@H]3[C@@](O)(C(=O)OC)[C@H](OC(C)=O)[C@]5(CC)C=CCN6CC[C@]43[C@@H]65)C2)C1 [vinblastine],"PR, percent of dogs",canine iUC,22%
"CC[C@]1(O)C[C@@H]2CN(CCc3c([nH]c4ccccc34)[C@@](C(=O)OC)(c3cc4c(cc3OC)N(C)[C@H]3[C@@](O)(C(=O)NN)[C@H](O)[C@]5(CC)C=CCN6CC[C@]43[C@@H]65)C2)C1 [DAVLBH, desacetylvinblastine monohydrazide]",toxicity in tumor xenograft mouse model,[7],unacceptable toxicity
